The target of test [1] is T1, human mesothelin (human, UniProt Q13421 296-580). In words: cell-based or functional assay.
For test [2], the target named is T1, human mesothelin. In words: cell-based or functional assay. This is another data set of the same source.
The target in test [3] is T1, human mesothelin. In words: flow cytometry on MSLN-expressing AsPC-1 cells, 3.8 pM-300 nM, fit with GraphPad Prism6. The procedure: (§1) Briefly, Jurkat suspension cells were harvested, counted and checked for viability. Adherent AsPC-1 cells were harvested using Cell Dissociation Buffer (Gibco, #13151014), counted, checked for viability, and re-suspended at 0.9×10⁶ cells/ml in FACS buffer (100 μl PBS 0.1% BSA). […] Cells were re-incubated for further 30 min at 4° C. with the 1:100 pre-diluted AlexaFluor 647—F(ab′)₂ Fragment Goat Anti-Human IgG, Fey fragment specific secondary antibody (Jackson Immuno Research Lab, […] #109-096-008) and thereafter washed twice with cold PBS 0.1% BSA.
(§2) The stained cells were re-suspended in 100 μl 2% paraformaldehyde-containing FACS Buffer and incubated for 30 min at room temperature to fix the staining. Finally cells were centrifuged for 4 min at 350×g and 4° C., the supernatants were discarded and the cell pellets re-suspended in 200 μl FACS Buffer. Staining was analyzed by FACS using a FACS Canto II (Software FACS Diva). Binding curves and EC50 values were obtained using GraphPadPrism6 (FIG. 8A, binding to Jurkat cells, FIG. 8B binding to AsPC-1 cells).

Another test deals with T2, human CD3 (human, UniProt P07766 23-207).
T2 construct: also called CD3 epsilon
T2 sequence (P07766 23-207 limits assumed): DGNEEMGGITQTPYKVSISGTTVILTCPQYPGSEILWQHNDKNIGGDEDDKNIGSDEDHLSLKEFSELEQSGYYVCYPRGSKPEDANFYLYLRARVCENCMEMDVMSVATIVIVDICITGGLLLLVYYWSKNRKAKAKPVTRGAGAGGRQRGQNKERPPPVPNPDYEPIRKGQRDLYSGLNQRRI
In words: flow cytometry on Jurkat cells, 3.8 pM-300 nM. The protocol: as §1, §2
Background: Flow cytometry measures light scatter and fluorescence of single cells or particles in a stream.

T1 sequence (Q13421 296-588): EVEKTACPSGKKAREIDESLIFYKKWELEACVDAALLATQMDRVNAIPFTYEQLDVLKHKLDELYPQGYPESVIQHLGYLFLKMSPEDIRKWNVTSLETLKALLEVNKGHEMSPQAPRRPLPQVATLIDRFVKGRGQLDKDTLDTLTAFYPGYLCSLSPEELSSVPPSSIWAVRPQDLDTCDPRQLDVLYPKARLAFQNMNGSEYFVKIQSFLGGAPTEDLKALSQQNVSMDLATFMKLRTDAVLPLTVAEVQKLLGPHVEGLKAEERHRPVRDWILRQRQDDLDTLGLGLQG

B1: MSLN TCB molecule E: '1+1 IgG CrossFab, inverted' with charge modifications (bispecific antibody)
heavy: not shown
light 1: EVQLLESGGGLVQPGGSLRLSCAASGFTFSTYAMNWVRQAPGKGLEWVSRIRSKYNNYATYYADSVKGRFTISRDDSKNTLYLQMNSLRAEDTAVYYCVRHGNFGNSYVSWFAYWGQGTLVTVSSASVAAPSVFIFPPSDEQLKSGTASVVCLLNNFYPREAKVQWKVDNALQSGNSQESVTEQDSKDSTYSLSSTLTLSKADYEKHKVYACEVTHQGLSSPVTKSFNRGEC
light 2: DIQMTQSPSSLSASVGDRVTITCSASSSVSYMHWYQQKSGKAPKLLIYDTSKLASGVPSRFSGSGSGTDFTLTISSLQPEDFATYYCQQWSKHPLTFGQGTKLEIKRTVAAPSVFIFPPSDRKLKSGTASVVCLLNNFYPREAKVQWKVDNALQSGNSQESVTEQDSKDSTYSLSSTLTLSKADYEKHKVYACEVTHQGLSSPVTKSFNRGEC
chain: DKTHTCPPCPAPEAAGGPSVFLFPPKPKDTLMISRTPEVTCVVVDVSHEDPEVKFNWYVDGVEVHNAKTKPREEQYNSTYRVVSVLTVLHQDWLNGKEYKCKVSNKALGAPIEKTISKAKGQPREPQVCTLPPSRDELTKNQVSLSCAVKGFYPSDIAVEWESNGQPENNYKTTPPVLDSDGSFFLVSKLTVDKSRWQQGNVFSCSVMHEALHNHYTQKSLSLSP
As for B1, in the test with human mesothelin [1], the “EC50 of T-cell mediated lysis of AsPC-1 cells, 48 h (LDH release)” value turned out to be 0.145 nM; the “EC50 of T-cell mediated lysis of BxPC-3 cells, 48 h (LDH release)” value amounted to 0.115 nM; the “EC50 of T-cell mediated lysis of NCI-H596 cells, 48 h (LDH release)” value came to 0.182 nM. For the same molecule, in the test with human mesothelin [2], the “EC50 of CD69 up-regulation on CD4 T cells (% CD4+CD69+), AsPC-1 target cells, 48 h (FACS)” value came to 0.167 nM; the “EC50 of CD69 up-regulation on CD4 T cells (% CD4+CD69+), BxPC-3 target cells, 48 h (FACS)” value was roughly 0.0939 nM; the “EC50 of CD69 up-regulation on CD4 T cells (% CD4+CD69+), NCI-H596 target cells, 48 h (FACS)” value worked out at 0.0388 nM; the “EC50 of CD69 up-regulation on CD8 T cells (% CD8+CD69+), AsPC-1 target cells, 48 h (FACS)” value is 0.146 nM. Besides, in the test with human mesothelin [2], the “EC50 of CD69 up-regulation on CD8 T cells (% CD8+CD69+), BxPC-3 target cells, 48 h (FACS)” value was roughly 0.0952 nM and the “EC50 of CD69 up-regulation on CD8 T cells (% CD8+CD69+), NCI-H596 target cells, 48 h (FACS)” value worked out at 0.0609 nM. A half-maximal response in the test with human mesothelin [3] (EC50) required 1.79 nM.

B2: MSLN TCB molecule C: '2+1 IgG CrossFab, inverted' without charge modifications (VH/VL exchange in CD3 binder) (bispecific antibody)
light: EVQLLESGGGLVQPGGSLRLSCAASGFTFSTYAMNWVRQAPGKGLEWVSRIRSKYNNYATYYADSVKGRFTISRDDSKNTLYLQMNSLRAEDTAVYYCVRHGNFGNSYVSWFAYWGQGTLVTVSSASVAAPSVFIFPPSDEQLKSGTASVVCLLNNFYPREAKVQWKVDNALQSGNSQESVTEQDSKDSTYSLSSTLTLSKADYEKHKVYACEVTHQGLSSPVTKSFNRGEC
chain 1: QVQLVQSGAEVKKPGASVKVSCKASGYSFTGYTMNWVRQAPGQGLEWMGLITPYNGASSYNQKFRGKATMTVDTSTSTVYMELSSLRSEDTAVYYCARGGYDGRGFDYWGQGTLVTVSSASTKGPSVFPLAPSSKSTSGGTAALGCLVKDYFPEPVTVSWNSGALTSGVHTFPAVLQSSGLYSLSSVVTVPSSSLGTQTYICNVNHKPSNTKVDKKVEPKSCDKTHTCPPCPAPEAAGGPSVFLFPPKPKDTLMISRTPEVTCVVVDVSHEDPEVKFNWYVDGVEVHNAKTKPREEQYNSTYRVVSVLTVLHQDWLNGKEYKCKVSNKALGAPIEKTISKAKGQPREPQVCTLPPSRDELTKNQVSLSCAVKGFYPSDIAVEWESNGQPENNYKTTPPVLDSDGSFFLVSKLTVDKSRWQQGNVFSCSVMHEALHNHYTQKSLSLSP
chain 2: not shown
chain 3: DIQMTQSPSSLSASVGDRVTITCSASSSVSYMHWYQQKSGKAPKLLIYDTSKLASGVPSRFSGSGSGTDFTLTISSLQPEDFATYYCQQWSKHPLTFGQGTKLEIKRTVAAPSVFIFPPSDEQLKSGTASVVCLLNNFYPREAKVQWKVDNALQSGNSQESVTEQDSKDSTYSLSSTLTLSKADYEKHKVYACEVTHQGLSSPVTKSFNRGEC
On to B2, for which the concentration for a half-maximal effect (EC50) (usually the concentration giving half of the maximal effect) in the test with human mesothelin [3] turned out to be 0.828 nM.

B3: MSLN TCB molecule F: '1+1 IgG CrossMab' with charge modifications (bispecific antibody)
heavy 1: QVQLVQSGAEVKKPGASVKVSCKASGYSFTGYTMNWVRQAPGQGLEWMGLITPYNGASSYNQKFRGKATMTVDTSTSTVYMELSSLRSEDTAVYYCARGGYDGRGFDYWGQGTLVTVSSASTKGPSVFPLAPSSKSTSGGTAALGCLVEDYFPEPVTVSWNSGALTSGVHTFPAVLQSSGLYSLSSVVTVPSSSLGTQTYICNVNHKPSNTKVDEKVEPKSCDKTHTCPPCPAPEAAGGPSVFLFPPKPKDTLMISRTPEVTCVVVDVSHEDPEVKFNWYVDGVEVHNAKTKPREEQYNSTYRVVSVLTVLHQDWLNGKEYKCKVSNKALGAPIEKTISKAKGQPREPQVCTLPPSRDELTKNQVSLSCAVKGFYPSDIAVEWESNGQPENNYKTTPPVLDSDGSFFLVSKLTVDKSRWQQGNVFSCSVMHEALHNHYTQKSLSLSP
heavy 2: not shown
light 1: EVQLLESGGGLVQPGGSLRLSCAASGFTFSTYAMNWVRQAPGKGLEWVSRIRSKYNNYATYYADSVKGRFTISRDDSKNTLYLQMNSLRAEDTAVYYCVRHGNFGNSYVSWFAYWGQGTLVTVSSASVAAPSVFIFPPSDEQLKSGTASVVCLLNNFYPREAKVQWKVDNALQSGNSQESVTEQDSKDSTYSLSSTLTLSKADYEKHKVYACEVTHQGLSSPVTKSFNRGEC
light 2: DIQMTQSPSSLSASVGDRVTITCSASSSVSYMHWYQQKSGKAPKLLIYDTSKLASGVPSRFSGSGSGTDFTLTISSLQPEDFATYYCQQWSKHPLTFGQGTKLEIKRTVAAPSVFIFPPSDRKLKSGTASVVCLLNNFYPREAKVQWKVDNALQSGNSQESVTEQDSKDSTYSLSSTLTLSKADYEKHKVYACEVTHQGLSSPVTKSFNRGEC
With B3, in the test with human mesothelin [1], the “EC50 of T-cell mediated lysis of AsPC-1 cells, 48 h (LDH release)” value was 0.37 nM and the “EC50 of T-cell mediated lysis of NCI-H596 cells, 48 h (LDH release)” value stood at 0.319 nM. For the same molecule, in the test with human mesothelin [2], the “EC50 of CD69 up-regulation on CD4 T cells (% CD4+CD69+), AsPC-1 target cells, 48 h (FACS)” value turned out to be 0.299 nM; the “EC50 of CD69 up-regulation on CD4 T cells (% CD4+CD69+), BxPC-3 target cells, 48 h (FACS)” value was roughly 0.0958 nM; the “EC50 of CD69 up-regulation on CD4 T cells (% CD4+CD69+), NCI-H596 target cells, 48 h (FACS)” value was found to be 0.0454 nM; the “EC50 of CD69 up-regulation on CD8 T cells (% CD8+CD69+), AsPC-1 target cells, 48 h (FACS)” value was found to be 0.118 nM. Also, in the test with human mesothelin [2], the “EC50 of CD69 up-regulation on CD8 T cells (% CD8+CD69+), BxPC-3 target cells, 48 h (FACS)” value stood at 0.479 nM and the “EC50 of CD69 up-regulation on CD8 T cells (% CD8+CD69+), NCI-H596 target cells, 48 h (FACS)” value was found to be 0.0532 nM. For the same molecule, the binding result in the test with human CD3 is recorded as “binds”. The molecule further had an EC50 with human mesothelin [3] of 4.59 nM.

(Values after patent publication US20170096485A1 (Hoffmann-La Roche, published 2017).)
